The values that follow come from article PMC10589721 (Proceedings of the National Academy of Sciences of the …, 2023).

Like-named read-outs stand apart in the source and are kept apart here. No end group written: not given here. *: point of attachment. Biotin = O=C1N[C@H]2[C@H](CS[C@H]2CCCCC(=O)*)N1; Ahx = NCCCCCC(=O)O

Assay [1] addresses T1, full-length human OGT (Homo sapiens, UniProt O15294).
T1 sequence (O15294 1-1046): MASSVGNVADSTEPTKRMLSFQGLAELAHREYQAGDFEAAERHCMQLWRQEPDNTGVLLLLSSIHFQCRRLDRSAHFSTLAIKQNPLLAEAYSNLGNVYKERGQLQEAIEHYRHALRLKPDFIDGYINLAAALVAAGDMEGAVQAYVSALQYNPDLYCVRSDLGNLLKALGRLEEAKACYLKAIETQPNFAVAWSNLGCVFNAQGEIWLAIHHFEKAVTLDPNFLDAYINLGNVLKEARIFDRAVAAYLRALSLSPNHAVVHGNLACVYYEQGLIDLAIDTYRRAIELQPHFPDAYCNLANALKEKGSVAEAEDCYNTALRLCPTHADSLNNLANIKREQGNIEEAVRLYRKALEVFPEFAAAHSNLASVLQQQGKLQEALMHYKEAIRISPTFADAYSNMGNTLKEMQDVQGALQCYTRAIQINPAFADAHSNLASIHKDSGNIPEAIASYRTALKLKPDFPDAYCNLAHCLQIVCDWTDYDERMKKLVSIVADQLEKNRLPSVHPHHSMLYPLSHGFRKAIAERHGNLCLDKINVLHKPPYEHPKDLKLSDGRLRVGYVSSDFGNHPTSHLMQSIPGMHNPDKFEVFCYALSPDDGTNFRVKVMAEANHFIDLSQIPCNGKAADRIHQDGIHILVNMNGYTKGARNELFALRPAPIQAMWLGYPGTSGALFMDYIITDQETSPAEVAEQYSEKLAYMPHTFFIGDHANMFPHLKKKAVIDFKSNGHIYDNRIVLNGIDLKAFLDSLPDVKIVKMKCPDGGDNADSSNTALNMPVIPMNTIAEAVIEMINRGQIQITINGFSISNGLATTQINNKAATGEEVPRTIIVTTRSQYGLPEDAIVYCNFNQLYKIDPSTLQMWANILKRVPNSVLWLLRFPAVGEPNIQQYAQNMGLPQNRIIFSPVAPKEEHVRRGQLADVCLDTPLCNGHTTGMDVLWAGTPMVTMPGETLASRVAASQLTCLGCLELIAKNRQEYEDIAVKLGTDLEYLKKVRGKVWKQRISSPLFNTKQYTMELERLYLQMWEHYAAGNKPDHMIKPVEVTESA
Briefly: OGT inhibition assay. It is filed as biochemical.

The target of assay [2] is T2, OGT4.5 (crystallizable construct of O-GlcNAc transferase: catalytic region appended to 4.5 TPRs) (human, UniProt O15294 323-1041).
T2 sequence: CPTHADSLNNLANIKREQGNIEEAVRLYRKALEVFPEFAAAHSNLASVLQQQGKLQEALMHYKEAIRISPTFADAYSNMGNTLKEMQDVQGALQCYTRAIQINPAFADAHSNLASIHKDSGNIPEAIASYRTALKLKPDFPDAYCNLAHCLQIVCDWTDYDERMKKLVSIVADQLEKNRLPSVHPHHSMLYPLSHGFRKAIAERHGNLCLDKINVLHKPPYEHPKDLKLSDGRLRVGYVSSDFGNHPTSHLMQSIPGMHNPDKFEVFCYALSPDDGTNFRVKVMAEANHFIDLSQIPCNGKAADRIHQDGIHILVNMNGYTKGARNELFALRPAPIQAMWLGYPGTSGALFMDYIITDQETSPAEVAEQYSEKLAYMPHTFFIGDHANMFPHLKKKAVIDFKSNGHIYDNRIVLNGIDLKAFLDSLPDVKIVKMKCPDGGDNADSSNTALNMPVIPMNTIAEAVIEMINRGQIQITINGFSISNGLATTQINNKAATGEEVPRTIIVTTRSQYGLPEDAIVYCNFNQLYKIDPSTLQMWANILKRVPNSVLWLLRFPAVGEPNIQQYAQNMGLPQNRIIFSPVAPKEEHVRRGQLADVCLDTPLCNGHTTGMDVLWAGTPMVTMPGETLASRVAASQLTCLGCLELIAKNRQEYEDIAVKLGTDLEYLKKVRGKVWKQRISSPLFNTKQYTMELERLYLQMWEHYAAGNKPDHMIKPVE
Briefly: crystal structure.

Assay [3] concerns the target T2, OGT4.5 (crystallizable construct of …). Briefly: BLI.
In assay [4] the target is T3, O-GlcNAc transferase (OGT), as used in the fluorescence activity assay (human, UniProt O15294 1-1046).
T3 sequence (looked up): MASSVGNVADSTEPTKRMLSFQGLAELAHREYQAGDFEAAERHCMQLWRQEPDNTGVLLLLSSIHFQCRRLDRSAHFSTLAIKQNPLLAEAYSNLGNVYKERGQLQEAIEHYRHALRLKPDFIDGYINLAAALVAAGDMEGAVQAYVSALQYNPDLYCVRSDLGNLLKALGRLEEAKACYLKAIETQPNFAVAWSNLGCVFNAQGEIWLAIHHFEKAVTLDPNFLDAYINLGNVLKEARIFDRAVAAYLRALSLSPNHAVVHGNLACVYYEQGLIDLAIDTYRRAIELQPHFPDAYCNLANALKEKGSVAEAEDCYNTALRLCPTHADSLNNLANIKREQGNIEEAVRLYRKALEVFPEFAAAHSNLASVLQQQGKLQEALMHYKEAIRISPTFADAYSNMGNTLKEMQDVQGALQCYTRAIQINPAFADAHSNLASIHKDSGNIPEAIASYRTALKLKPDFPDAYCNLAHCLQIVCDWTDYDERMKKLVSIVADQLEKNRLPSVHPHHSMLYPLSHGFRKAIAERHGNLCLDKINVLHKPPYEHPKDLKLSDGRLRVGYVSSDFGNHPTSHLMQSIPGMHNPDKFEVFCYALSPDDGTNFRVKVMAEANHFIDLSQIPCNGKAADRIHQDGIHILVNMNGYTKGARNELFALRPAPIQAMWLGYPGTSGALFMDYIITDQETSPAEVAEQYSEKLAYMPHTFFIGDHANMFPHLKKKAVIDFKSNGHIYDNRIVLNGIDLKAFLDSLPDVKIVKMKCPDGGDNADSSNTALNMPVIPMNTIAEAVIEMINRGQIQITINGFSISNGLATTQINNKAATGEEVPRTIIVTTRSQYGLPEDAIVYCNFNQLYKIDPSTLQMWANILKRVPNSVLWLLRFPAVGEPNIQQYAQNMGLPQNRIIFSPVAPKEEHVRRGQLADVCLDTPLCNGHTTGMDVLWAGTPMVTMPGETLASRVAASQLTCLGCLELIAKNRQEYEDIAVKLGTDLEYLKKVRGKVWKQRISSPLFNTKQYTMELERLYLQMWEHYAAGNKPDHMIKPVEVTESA
Briefly: enzyme inhibition kinetics.

Assay [5] addresses T3, O-GlcNAc transferase (OGT), as used in …. The assay is described as follows: enzyme inhibition kinetics. The source holds these as a separate data set.
For assay [6] the target is unchanged. Briefly: enzyme inhibition kinetics. The source holds these as a separate data set.

For orientation: Kd means the constant that tells how readily two partners part at equilibrium. The low end stands for tighter binding, the high end for weaker binding. For orientation: Ki means the equilibrium dissociation constant of an inhibitor or competing ligand from its target.

DDSDLYSPRYSFSED [repeat 2 of SORB1]: in assay [1], the “inhibition of OGT (in words)” value was “none of these four peptides inhibited OGT”.

As for PEENPYFPTYKFPEL [repeat 1 of SORB1], the “inhibition of OGT (in words)” value in assay [1] is on record as “none of these four peptides inhibited OGT”.

With PTSKAYSPRYSISDR [SOS1], in assay [1], the “inhibition of OGT (in words)” value is on record as “none of these four peptides inhibited OGT”.

For the molecule RGLGEFTPLYPMLFG [SCLY], the “inhibition of OGT (in words)” value in assay [1] is “none of these four peptides inhibited OGT”.

For the molecule FMPKYSI [truncated P11 peptide (tP11)], the binding result in assay [2] was “binds”.

Molecule {Biotin-Ahx}-GDFPVMFMPKYSIIF [biotinylated peptide P11 (Biotin-Ahx-GDFPVMFMPKYSIIF)] came in with a Kd in assay [3] of 0.47 ± 0.16 µM.

Turning to GDFPVMFMPKYSIIF [peptide P11], the Ki is 4000 ± 900 µM in assay [4], 2.7 ± 0.3 µM in assay [5] and 3.8 ± 0.4 µM in assay [6].
